Assay results: US20150239980A1 (NEOTOPE BOSCIENCES, published 2015)

What was measured:
recombinant hMCAM-His [1] = biological target: T1, recombinant hMCAM-His (human, UniProt P43121 24-559); assay: competitive ELISA on hMCAM-His, competitor biotinylated rodent or chimeric 1749; Expt. #2; vs rodent 1749
T1 construct: not shown: His tag
T1 chain: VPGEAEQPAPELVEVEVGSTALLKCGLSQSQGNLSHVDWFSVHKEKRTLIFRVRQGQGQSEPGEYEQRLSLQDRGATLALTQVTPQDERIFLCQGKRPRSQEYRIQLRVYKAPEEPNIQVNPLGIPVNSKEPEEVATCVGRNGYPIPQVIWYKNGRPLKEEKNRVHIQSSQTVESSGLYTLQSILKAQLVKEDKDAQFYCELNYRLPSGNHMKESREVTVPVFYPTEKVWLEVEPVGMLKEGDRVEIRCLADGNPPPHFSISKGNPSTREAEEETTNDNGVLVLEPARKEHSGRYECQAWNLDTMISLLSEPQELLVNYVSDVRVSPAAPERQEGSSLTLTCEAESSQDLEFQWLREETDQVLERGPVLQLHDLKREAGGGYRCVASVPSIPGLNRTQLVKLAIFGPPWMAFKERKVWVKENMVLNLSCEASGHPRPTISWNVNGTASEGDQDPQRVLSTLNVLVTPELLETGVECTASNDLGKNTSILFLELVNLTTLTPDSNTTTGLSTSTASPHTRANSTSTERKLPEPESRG
Description: (§1) ELISA plates were coated with recombinant hMCAM-His, and blocked with casein buffer to prevent non-specific binding. Biotinylated rodent or chimeric antibody was added at a subsaturating concentration, in the presence or absence of 3× increasing concentrations of unlabeled competitor (humanized antibody, rodent, or chimeric). After washing to remove unbound antibody, streptavidin HRP was added to allow detection of the biotinylated antibody. The ELISA was developed with TMB substrate and the OD450 was measured. The IC50 of the unlabeled competitor was determined using the GraphPad Prism5 software.

recombinant hMCAM-His [2] = biological target: T1, recombinant hMCAM-His; assay: competitive ELISA on hMCAM-His, competitor biotinylated rodent or chimeric 1749; Expt. #1; vs rodent 1749
Description: as §1

[3] = biological target: T2, human MCAM (melanoma cell adhesion molecule) expressed on transfected CHO cells (human, UniProt P43121 24-646); assay: flow cytometry, human MCAM CHO cells preincubated with antibody, competitor recombinant human laminin 411 at 20 ug/ml
T2 construct: also called hMCAM; CD146
T2 chain: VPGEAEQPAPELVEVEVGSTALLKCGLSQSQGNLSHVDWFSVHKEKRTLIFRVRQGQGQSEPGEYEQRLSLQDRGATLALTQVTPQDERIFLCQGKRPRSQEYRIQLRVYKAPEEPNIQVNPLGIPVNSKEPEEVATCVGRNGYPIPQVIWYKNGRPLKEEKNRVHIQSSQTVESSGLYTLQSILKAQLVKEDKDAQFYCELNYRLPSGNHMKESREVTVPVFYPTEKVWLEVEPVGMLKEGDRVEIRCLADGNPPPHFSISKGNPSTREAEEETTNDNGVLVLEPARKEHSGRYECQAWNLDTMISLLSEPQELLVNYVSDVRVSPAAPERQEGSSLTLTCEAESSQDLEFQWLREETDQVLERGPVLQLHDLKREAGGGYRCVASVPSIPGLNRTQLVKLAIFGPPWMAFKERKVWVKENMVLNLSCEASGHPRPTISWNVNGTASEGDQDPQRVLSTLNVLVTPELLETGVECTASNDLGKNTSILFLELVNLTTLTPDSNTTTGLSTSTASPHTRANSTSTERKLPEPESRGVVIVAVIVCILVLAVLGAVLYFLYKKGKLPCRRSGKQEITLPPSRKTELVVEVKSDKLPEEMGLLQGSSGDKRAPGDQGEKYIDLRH
Description: The 87 independent mouse fusion clones and 26 independent rat fusion clones described in Example 10 above as being capable of (i) binding to human MCAM, and (ii) blocking the interaction between human MCAM and the α-4 chain of laminin were further characterized as follows. First, IC50 quantitation for the ability of the monoclonal antibody to block the binding of human MCAM to the α-4 chain of laminin was determined as follows. CHO cells expressing human MCAM were incubated with an anti-human MCAM antibody (at various concentrations) for 30 minutes at 4 degrees Celsius. […] Unbound laminin was then washed away, and the laminin bound to the surface of the cells was detected with fluorescently labeled anti-laminin antibodies. After washing, the amount of laminin bound to the surface was detected by flow cytometry, and IC50s were calculated based on the mean fluorescent intensity.
These six anti-MCAM monoclonal antibody clones are herein referred to as (i) the mouse anti-human MCAM monoclonal clones 1174.1.3, 1414.1.2, 1415.1.1, and 1749.1.3, and (ii) the rat anti-human MCAM monoclonal antibody clones 2120.4.19 and 2107.4.10. […] As such, each of these specific monoclonal antibodies was very capable of binding to human MCAM and inhibiting the interaction of cell-expressed human MCAM with its α-4 laminin binding ligand.

fold over rodent (competitive ELISA) (recombinant hMCAM-His [1]): 1 fold
fold over rodent (competitive ELISA) (recombinant hMCAM-His [2]): 1 fold
IC50 [3]: 0.545 mg/L
B1: mouse anti-human MCAM monoclonal antibody clone 1749.1.3 (antibody, V domains shown)
VH: DVKLVESGGDLVKPGGSLKLSCAASGFTFSSYIMSWVRQTPEKRLEWVATISSGGSSTYYPDSVKGRFTISRDNAKNTLYLQMSSLKSEDTAMYYCTRDDDYDVKVFAYWGQGTLVTVSA
VL: DIVMSQSPSSLAVSAGEKVTMNCKSSRSLLNSRIRKNYLAWYQQKPGQSPKLLIYWASTRESGVPDRFTGSGSGTDFTLTISSVQAEDLAVYYCKQSYNLLTFGAGTKLELK
notes: mouse hybridoma antibody; also called rodent 1749; murine 1749.1.3 anti-MCAM antibody
